{"source": "patent US6200577A", "about": "“Anti-herpesviral agents and assays therefor” (priority 1996, dated 2001)", "key": {"[1]": {"molecular_target": "T1, VP16/VP22trunc interaction (Human herpesvirus 1, UniProt P06492)", "T1 construct": "Plasmid pETVP16 was used to express full-length VP16 under the control of the T7 RNA polymerase promoter; made in house; host or cells: E. coli BL21(DE3)", "T1 sequence (P06492 whole entry)": "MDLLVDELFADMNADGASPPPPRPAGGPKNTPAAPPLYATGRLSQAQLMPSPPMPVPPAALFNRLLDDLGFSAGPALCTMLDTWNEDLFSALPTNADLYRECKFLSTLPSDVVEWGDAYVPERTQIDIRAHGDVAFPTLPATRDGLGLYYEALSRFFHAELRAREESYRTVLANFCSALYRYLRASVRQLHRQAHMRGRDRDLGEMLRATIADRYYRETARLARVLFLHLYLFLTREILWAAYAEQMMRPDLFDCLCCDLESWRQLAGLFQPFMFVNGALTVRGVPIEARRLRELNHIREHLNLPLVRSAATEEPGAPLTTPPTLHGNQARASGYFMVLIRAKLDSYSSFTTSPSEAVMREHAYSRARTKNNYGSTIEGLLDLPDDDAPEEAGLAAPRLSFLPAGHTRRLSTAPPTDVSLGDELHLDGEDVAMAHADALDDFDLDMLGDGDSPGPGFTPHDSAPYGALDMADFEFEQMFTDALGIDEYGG", "assay": "Co-purification of VP16 with VP22trunc on Ni-NTA resin in presence of peptides", "format": "binding, HSV-1", "settings": "for Co-elution of VP16 with VP22trunc from Ni-NTA resin after incubation with peptide: crude peptide at 2 mg/ml (about 1 mM), equal volume mixed with partially purified VP16 extract before VP22trunc; for Inhibition of VP16 co-elution with VP22trunc, peptides purified to homogeneity: peptides purified by reverse phase HPLC, data not shown", "method": "FIG. 4 Co-elution of VP16 with VP22trunc from Ni-NTA resin. Partially purified extract containing VP16 was incubated in the absence of (lane 14) or presence of […] of VP22trunc (lanes 3 to 13). In lanes 3 to 12, an equal volume of the individual peptides at 2 mg/ml was added to the extract prior to VP22trunc. Peptides added to each reaction were as follows: lane 3, peptide A; lane 4, peptide B; lane 5, peptide C; lane 6, peptide D; lane 7, peptide E; lane 8, peptide F; lane 9, peptide G; lane 10, peptide H; lane 11, peptide I; lane 12, peptide J; lane 13, no peptide. Lanes 3 to 14 show the polypeptides eluted from Ni-NTA resin. Other samples were as follows: lane 1, partially purified VP16 extract, lane 2, purified VP16; lane 15, purified VP22trunc. Samples were electrophoresed on a 12% polyacrylamide gel and the apparent molecular weights of VP16 (65 KDa) and VP22trunc (16 KDa) are shown.\nCo-purification of VP16 with VP22trunc on Ni-NTA Resin. Purified VP22trunc and a partially purified extract containing VP16, both in 20 mM Tris-HCl, pH8.0, 250 mM NaCl, were mixed at 4° C. for 15 to 30 minutes on a rotator. 50 μl of equilibrated Ni-NTA resin was added to each mixture and incubation was continued at 40C for a further 15 to 30 minutes. Resin was pelleted at 800 g for 1 minute and the supernatant (non-bound fraction) was removed. Resin was washed sequentially with 0.5 ml of 20 mM Tris-HCl, pH 8.0, 250 mM NaCl, 5 mM imidazole (twice) and 0.5 ml of 20 mM Tris-HCl, pH 8.0, 250 mM NaCl, 60 mM imidazole (four times). Bound protein was eluted by addition of 50 μl of boiling mix (160 mM Tris-HCl, pH 6.7, 2% SDS, 700 mM β-mercaptoethanol, 10% glycerol, 0.002% bromophenol blue) followed by heating to 100° C. for 5 minutes. For peptide studies, peptides were dissolved in 20 mM Tris-HCl, pH8.0, 250 mM NaCl at a concentration of 2 mg/ml. Incubation of peptides with partially purified VP16 extracts was performed at ambient temperature for 2 hours prior to the addition of VP22trunc. Samples were electrophoresed on denaturing polyacrylamide gels.\nResults presented in Section 2(i) had shown that VP16 co-elutes from Ni-NTA resin in the presence of VP22trunc and it was concluded that this indicated interaction between these polypeptides. The ability of synthetic peptides to inhibit this interaction was analysed by mixing them individually with the partially purified VP16 extract prior to addition of VP22trunc. From the intensity of the 65 KDa species in the crude extract (FIG. 4, lane 2), it was estimated that the concentration of VP16 was approximately […]. To ensure that experiments were performed in an excess of peptide, peptides were prepared at a concentration of 2 mg/ml (about 1 mM) and equal volumes of peptide and extract were mixed. This gave a relative molar ratio of VP16 to peptide of 1:300. However, it should be noted that certain peptides were not completely soluble (Table 1) and in those cases, the ratio would be reduced."}, "gB/VP22trunc binding": {"molecular_target": "T2, gB/VP22trunc binding (Human herpesvirus 1, UniProt P10211)", "T2 construct": "linked residues 798 to 904 of gB to the glutathione-S-transferase (GST) protein expressed by pGex2TNMCR; made in house; host or cells: GST-gB: E. coli DH5alpha; VP22trunc: E. coli BL21(DE3)", "T2 sequence (P10211 798-904)": "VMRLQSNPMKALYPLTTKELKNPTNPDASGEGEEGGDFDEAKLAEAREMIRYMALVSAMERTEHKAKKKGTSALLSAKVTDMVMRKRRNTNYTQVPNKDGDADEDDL", "assay": "Far Western analysis of peptide inhibition of GST-gB binding to VP22trunc", "parameters": "species or system HSV-1", "settings": "peptide 250 μg/ml co-incubated with GST-gB 1.2 μg/ml; FIG. 12B", "method": "(B) Inhibition of binding of GST-gB (final concentration 1.2 μg/ml)and each of the following peptides at a final concentration of 250 μg/ml: lane 1, no peptide; lane 2, peptide A; lane 3, peptide B; lane 4, peptide C; lane 5, peptide D; lane 6, peptide E; lane 7, peptide F; lane 8, peptide G; lane 9, peptide H; lane 10, peptide I; lane 11, peptide J. Bound GST-gB was detected with anti-GST antibody.\nFollowing electrophoresis, proteins were electrotransferred to either Hybond or ProBlott (Applied Biosystems) membrane and the membrane was incubated in renaturation buffer (50 mM Tris-HCl, pH 8.0, 150 mM NaCl, 10% glycerol, 1 mM DTT) at 4° C. for 5-6 hours.\nFor membranes probed with GST-gB, blocking was performed overnight in PBSA containing 1% non-fat dried milk and 0.05% Tween 20 at 4° C. Membranes were then washed twice in renaturation buffer (10 min/wash) prior to incubation with fusion protein (final concentration 0.5 μg/ml) in renaturation buffer containing 1% BSA. Incubation was again performed overnight at 4° C. Following washing with renaturation buffer (four times, 10 minutes/wash) and a brief rinse with blocking buffer, the membrane was incubated with anti-GST antibody in PBSA, 1% non-fat dried milk, 0.05% Tween 20 and 1% BSA for 1 hour at ambient temperature. After four washes with PBSA, 0.05% Tween 20 (10 minutes/wash), bound antibody was detected with secondary antibody (goat anti-rabbit IgG, whole molecule; Sigma) conjugated to Horse Radish Peroxidase (HRP) by incubating at room temperature for 45 minutes. Following four further washes with PBSA, 0.05% Tween 20, the secondary antibody was visualised by enhanced chemiluminescence.\nSimilar to the studies performed with inhibition of binding of VP16 to VP22, peptides A to J, which span residues 18 to 144 of VP22trunc, were used to examine whether gB binding could also be prevented (FIG. 12B)."}}, "data": [{"sequence": "TPRVAGFNKRVFCAAVGRLA [Peptide D]", "values": [{"measurement": "Co-elution of VP16 with VP22trunc from Ni-NTA resin after incubation with peptide", "setting": "[1]", "value": "reduced amounts"}, {"measurement": "Inhibition of VP16 co-elution with VP22trunc, peptides purified to homogeneity", "setting": "[1]", "value": "inhibitory capabilities were retained"}, {"measurement": "Inhibition of GST-gB binding to VP22trunc (Far Western)", "setting": "gB/VP22trunc binding", "value": "completely inhibited binding of gB"}]}, {"sequence": "CAAVGRLAAMHARMAAVQLW [Peptide E]", "values": [{"measurement": "Co-elution of VP16 with VP22trunc from Ni-NTA resin after incubation with peptide", "setting": "[1]", "value": "failed to co-elute"}, {"measurement": "Inhibition of VP16 co-elution with VP22trunc, peptides purified to homogeneity", "setting": "[1]", "value": "inhibitory capabilities were retained"}, {"measurement": "Inhibition of GST-gB binding to VP22trunc (Far Western)", "setting": "gB/VP22trunc binding", "value": "completely inhibited binding of gB"}]}]}
